From the supplement of paper PMC7877785
± gives the uncertainty stated by the source.

Assay: self-splicing fitness, log relative to wild type (ln ratio); higher = more splicing; Tetrahymena group I intron in knt gene, E. coli kanamycin selection, DiMSum; sequences stand for … in CUCUCU…GGAGGGAAAAGUUAUCAGGCAUGCACCUGGUAGCUAGUCUUUAAACCAAUAGAUUGCAUCGGUUUAAAAGGCAAGACCGUCAAAUUGCGGGAAAGGGGUCAACAGCCGUUCAGUACCAAGUCUCAGGGGAAACUUUGAGAUGGCCUUGCAAAGGGUAUGGUAAUAAGCUGACGGACAUGGUCCUAACCACGCAGCCAAGUCCUAAGUCAACAGAUCUUCUGUUGAUAUGGAUGCAGUUCACAGACUAAAUGUCGGUCGGGGAAGAUGUAUUCUUCUCAUAAGAUAUAGUCGGACCUCUCCUUAAUGGGAGCUAGCGGAUGAAGUGAUGCAACACUGGAGCCGCUGGGAACUAAUUUGUAUGCGAAAGUAUAUUGAUUAGUUUUGGAGUACUCGUGGUCG
In short: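 Library with all eight P1ex-region intron nucleotides randomised, intron inside the knt kanamycin-resistance gene on pET-22b(+), in E. coli BL21(DE3). Cells grew overnight at 37°C or 30°C on LB agar with or without 25 μg/mL kanamycin (plus 100 μg/mL carbenicillin, 50 μM IPTG, 0.2% rhamnose), in six replicate transformations. Pooled colonies were amplicon-sequenced on Illumina HiSeq 2500. DiMSum fitness is the error-weighted combination of wild-type-normalised replicate fold changes, kanamycin versus none.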

Row | Sequence | self-splicing fitness (ln) (30 °C) | self-splicing fitness (ln) (37 °C)
1 | GUGUAGCAAUAUUACGGUUU | -1.04 ± 0.086 | -0.738 ± 0.11
2 | GUGUAGCAAUAUUACGUAUA | -2.85 ± 0.49 | -0.725 ± 0.15
3 | GUGUAGCAAUAUUACGUUUC | -2.63 ± 0.13 | -1.92 ± 0.13
4 | GUUAAGCAAUAUUACGACUC | 0.708 ± 0.15 | 0.214 ± 0.17
5 | GUUAAGCAAUAUUACGAGAU | -2.48 ± 0.3 | -1.81 ± 0.35
6 | GUUAAGCAAUAUUACGAUUG | -3.09 ± 0.34 | -1.63 ± 0.34
7 | GUUAAGCAAUAUUACGCAAA | -2.21 ± 0.27 | -2.21 ± 0.22
8 | GUUAAGCAAUAUUACGCAUC | -2.3 ± 0.1 | -0.951 ± 0.095
9 | GUUAAGCAAUAUUACGCCUG | -0.512 ± 0.11 | -0.224 ± 0.12
10 | GUUAAGCAAUAUUACGCGAA | -2.09 ± 0.21 | 0.0507 ± 0.2
11 | GUUAAGCAAUAUUACGCUAU | – | -0.862 ± 0.32
12 | GUUAAGCAAUAUUACGCUCU | -1.24 ± 0.1 | -1.12 ± 0.11
13 | GUUAAGCAAUAUUACGGAUA | -2.09 ± 0.12 | -1.61 ± 0.16
14 | GUUAAGCAAUAUUACGGCUU | -1.22 ± 0.11 | -0.546 ± 0.14
15 | GUUAAGCAAUAUUACGGGUC | -1.33 ± 0.34 | -1.77 ± 0.41
16 | GUUAAGCAAUAUUACGGUGC | -2.42 ± 0.1 | -1.23 ± 0.12
17 | GUUAAGCAAUAUUACGUAAC | -3.15 ± 0.44 | –
18 | GUUAAGCAAUAUUACGUAAU | -2.09 ± 0.079 | -1.49 ± 0.089
19 | GUUAAGCAAUAUUACGUACG | -1.83 ± 0.14 | -0.662 ± 0.14

Row | Sequence | self-splicing fitness (ln) (30 °C) | self-splicing fitness (ln) (37 °C)
20 | GUUAAGCAAUAUUACGUAUA | -1.79 ± 0.14 | -1.54 ± 0.15
21 | GUUAAGCAAUAUUACGUCCA | -1.21 ± 0.088 | 0.057 ± 0.097
22 | GUUAAGCAAUAUUACGUCUA | -0.524 ± 0.1 | -0.261 ± 0.099
23 | GUUAAGCAAUAUUACGUGAA | -1.75 ± 0.11 | -1.47 ± 0.16
24 | GUUAAGCAAUAUUACGUGGU | -2.79 ± 0.15 | -2.35 ± 0.19
25 | GUUAAGCAAUAUUACGUGUG | -1.93 ± 0.093 | -1.21 ± 0.098
26 | GUUAAGCAAUAUUACGUUAU | -1.62 ± 0.12 | -0.968 ± 0.13
27 | GUUAAGCAAUAUUACGUUCC | -2.16 ± 0.18 | -0.875 ± 0.23
28 | GUUCAGCAAUAUUACGAAUU | -1.52 ± 0.14 | -1.14 ± 0.14
29 | GUUCAGCAAUAUUACGAUAG | -2.65 ± 0.2 | -1.53 ± 0.18
30 | GUUCAGCAAUAUUACGAUGA | -1.07 ± 0.13 | -0.686 ± 0.19
31 | GUUCAGCAAUAUUACGAUUC | 0.118 ± 0.095 | 0.523 ± 0.11
32 | GUUCAGCAAUAUUACGCAAC | -2.96 ± 0.22 | -1.48 ± 0.21
33 | GUUCAGCAAUAUUACGCAUA | -0.815 ± 0.083 | 0.0985 ± 0.1
34 | GUUCAGCAAUAUUACGCAUC | -0.592 ± 0.12 | -0.361 ± 0.14
35 | GUUCAGCAAUAUUACGCCAG | -2.06 ± 0.29 | –
36 | GUUCAGCAAUAUUACGCCCC | -0.521 ± 0.16 | -0.42 ± 0.19
37 | GUUCAGCAAUAUUACGCGUG | -0.852 ± 0.083 | 0.166 ± 0.088
38 | GUUCAGCAAUAUUACGCUAC | -3.75 ± 0.29 | -2.67 ± 0.26
